Data reported in PMC2688778 (Structure (London, England : 1993), 2009).

Biological target: the molecule itself
Experiment: crystal structure

B1: RecE^606 (P658L) (residues 606-866 of E. coli RecE protein with the P658L mutation) (domain or fragment, UniProt P15032 606-866, looked up)
chain: ENYHAGPGISKSQLDDIADTPALYLWRKNAPVDTTKTKTLDLGTAFHCRVLELEEFSNRFIVAPEFNRRTNAGKEEEKAFLMECASTGKTVITAEEGRKIELMYQSVMALPLGQWLVESAGHAESSIYWEDPETGILCRCRPDKIIPEFHWIMDVKTTADIQRFKTAYYDYRYHVQDAFYSDGYEAQFGVQPTFVFLVASTTIECGRYPVEIFMMGEEAKLAGQQEYHRNLRTLSDCLNTDEWPAIKTLSLPRWAKEYAND
Question: For B1, which “stoichiometry N” value is on record?
Answer: The value was 4.
